The values that follow are results of earlier work, collected in paper PMC5810417.

Read-outs that look alike come from different tables or passages of the source.

The target in data set [1] is Prdx6 (Homo sapiens) (UniProt P30041).
Data set [2] shares this target. The data set can be described thus: PLA2 activity inhibition.
For data set [3] the target is unchanged. This is another data set of the same source.
Data set [4] shares this target. This is another data set of the same source.

With Prdx6 (from UniProt P30041), in the data set with Prdx6 (Homo sapiens) [1], the equilibrium dissociation constant (Kd) (as a rule, a measure of binding affinity in units of concentration) was < 20 nM.
As for SP-A (from UniProt Q8IWL2), in the data set with Prdx6 (Homo sapiens) [2], the Ki (in general, the equilibrium dissociation constant of an inhibitor or competing ligand from its target) was 130 nM.
With p67phox (from UniProt P19878), in the data set with Prdx6 (Homo sapiens) [2], the inhibitory constant (Ki) was 65 nM.
As to πGST1-1A and C (from UniProt P09211), the dissociation constant Kd in the data set with Prdx6 (Homo sapiens) [3] was 50 nM.
For the substance πGST1-1B and D (from UniProt P09211), the Kd in the data set with Prdx6 (Homo sapiens) [4] is 100 nM.
